Results published in patent US20190002846A1, “POLYPEPTIDES HAVING DEMETHYLATING ACTIVITY” (Genencor International B.V., priority 2015, published 2019).

Legend:
[1] = Conversion of syringic acid by purified PPO, difference absorbance spectra after 24 h; assay type: biochemical; settings: 12 mM syringic acid, purified enzyme 0.048 g/L, pH 6.5, 10 μM CuSO4, room temperature
Description: Syringic acid (12 mM, 2.38 g/L) was incubated with PPO7 and PPO2 from Example 5 (0.048 g/L, 2% loading (w/w)) in 50 mM BisTris buffer pH 6.5 with 10 μM CuSO4. Blank prepared without the addition of enzyme was included. Incubations were performed in HPLC vials with a total of 750 μL reaction volume at room temperature for 24 h. The reaction was stopped by adding 21 μL 1M HCl to lower the pH to ˜3. Samples were filtrated and absorbance spectra were measured (230-1000 nm, 2 nm interval). […] It is to be noted that any change in absorbance in time indicates syringic acid conversion.

[2] = Demethylation of syringic acid (GC methanol, UHPLC/MSMS); assay type: biochemical
Description: Syringic acid (12 mM, 2.38 g/L) was incubated with PPO7 from Example 2 (1.2 μM, 0.048 g/L, 2% loading (w/w)) in 50 mM BisTris buffer pH 6.5 with 10 μM CuSO4. Blank prepared without the addition of enzyme was included. Incubations were performed in GC headspace vials with a total of 1 mL reaction volume in duplicate at room temperature for approximately 90 h. The reaction was stopped by adding 28 μL 1M HCl to lower the pH to ˜3. One of the replicates was analyzed by GC for the methanol formation. A calibration range of 0.23 to 11.6 mM methanol in buffer with HCl was included. The second replicate was analyzed using UHPLC and the formation 3,4-dihydroxy-5-methoxybenzoic acid was confirmed using MSMS (see FIG. 5).

[3] = Methanol formation by GC, model compound; assay type: biochemical; settings: for methanol: 2% enzyme loading, approx. 48 h
Description: (§1) Model compounds syringic acid, syringol, 1,3-dimethoxybenzene and 3,5-dimethoxybenzoic acid (12 mM) were incubated with PPO7 from Example 2 (2% loading (w/w)) in 50 mM BisTris buffer pH 6.5 with 10 μM CuSO4. For syringic acid and syringol PPO2 from Example 2 was included as a control. Lignin and lignin-derived compounds (10 g/L) were incubated with PPO7 from Example 2 (0.5 g/L, 5% loading (w/w)). PPO2 from Example 2 was included as a control and incubated using the same conditions. Blanks prepared without the addition of enzyme were included. Incubations were performed in GC headspace vials with a total of 1 mL reaction volume at 25° C. for approximately 48 h while shaking. The reaction was stopped by adding 28 μL 1M HCl to lower the pH to ˜3. Samples were analyzed by GC for methanol formation. A calibration range of 0.23 to 11.5 mM methanol in buffer with HCl was included.

[4] = Methanol formation by GC, lignin-derived compound; assay type: biochemical; settings: enzyme 0.5 g/L, 25° C., approx. 48 h
Description: as §1

[5] = molecular target: T1, RAC incubated with LPMO9B (Thermothelomyces thermophilus, UniProt G2QCJ3); test: RAC hydrolysis assay with LPMO9B and PPO7 or AbTyr in the presence of phenolic reducing agents; assay type: biochemical, Myceliophthora thermophila; settings: LPMO9B alone = 100%, or with added enzyme, pH 5.0, 50° C., 24 h
T1 construct: made in house; host or cells: Myceliophthora thermophila C1 strain W1L#100.1Δpyr5ΔAlp1
T1 sequence (G2QCJ3 19-323): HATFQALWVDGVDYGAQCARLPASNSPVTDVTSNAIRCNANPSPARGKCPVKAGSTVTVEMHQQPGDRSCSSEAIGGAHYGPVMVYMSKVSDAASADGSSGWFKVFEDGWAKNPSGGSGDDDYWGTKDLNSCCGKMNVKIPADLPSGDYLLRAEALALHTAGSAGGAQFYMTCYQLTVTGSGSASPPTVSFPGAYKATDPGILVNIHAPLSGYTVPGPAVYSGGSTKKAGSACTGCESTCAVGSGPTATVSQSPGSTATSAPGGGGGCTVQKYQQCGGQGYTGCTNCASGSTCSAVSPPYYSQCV
Description: Phenolic reducing agents were obtained from Sigma-Aldrich (St. Louis, Mo., USA). RAC was prepared as described above and dissolved in 50 mM phospate buffer (pH 5.0) to a final concentration of 1.5 mg/ml. Copper chloride was added to a final concentration of 2.5 μM and a phenolic reducing agent to a final concentration of 2 mM. LPMO9B (5 μg/ml) with or without PPO7 (5 μg/ml) or AbTyr (7.5 U/ml) were added and incubated for 24 h at 50° C. in a head-over-tail rotator in portions of 1 mL total volume (Stuart® rotator, Bibby Scientific LTD, Stone, UK) at 20 rpm. Products were analysed by HPAEC and MALDI-TOF MS as described previously. (Frommhagen M, Sforza S, Westphal A H, Visser J, Hinz S W, Koetsier M J et al. Discovery of the combined oxidative cleavage of plant xylan and cellulose by a new fungal polysaccharide monooxygenase. Biotechnology for Biofuels. 2015; 8:101. doi:10.1186/s13068-015-0284-1). The Activity denoted as Activity * represents total release of non-oxidized and C1-oxidized gluco-oligosaccharides from RAC incubated with LPMO9B in the presence of a phenolic reducing agent and with addition of either AbTyr or PPO7. […] Standard deviations were less than 2%.

[6] = 12 mM syringic acid, enzyme 0.048 g/L, pH 6.5, 10 μM CuSO4, room temperature, approx. 90 h, blank 0

B1: PPO7: Myceliophthora thermophila C1 polyphenoloxidase with demethylating activity, mature form SEQ ID NO: 45 (protein, listed as Myceliophthora thermophila)
chain: NPMHKRWKPNAPRNPDFPLDEVDKLEESIMPNVEAWMSKRPAKYSNCTLENAGIRREWSDLSVDERKEYISAVLCLQSKPSKIPEGEVPGALSRFDDFVATHMTMAGQLHSPTNLFAAHRYFIHAYEKALREECGYKGYQPYMNYDRYADDPLNTPLFDGSDSSMSGNGGPYNYSGIPQPFPKPYNLIPPAGGGGCVTEGPFRDMVVSLGPKGGLFHDIPRNPRADGLGSNPRCLRRDVNKYSARGARANYTYSAIMDNPDIDSFYNRYMGMPQLKGDPYPWGLHSSGHYLIGGDPGGDFYCSPGDPLFYFHHGMLDRVWWIWQMQDPENRVQAVPGTNTMPMPPLMAANLESEAAATTTHKRAVNVSDLVVDLGWTAPPVKLVDLNEQLGGLGGELCYIYV
Spectral change caused by reaction products [1]: spectral increase between 300 and 500 nm | Syringic acid conversion: negative peak in the difference absorbance spectra between 230 and 300 nm [1]: more significant for PPO7 than for PPO2 | 3,4-dihydroxy-5-methoxybenzoic acid concentration (UHPLC) [2, 6]: 1.61 mM | methanol concentration (GC) [2, 6]: 4.84 mM | syringic acid concentration (UHPLC) ([2]; 12 mM syringic acid, enzyme 0.048 g/L, pH 6.5, 10 μM CuSO4, room temperature, approx. 90 h, blank 10.86): 3.02 mM | Demethylation of syringic acid (in words) ([2]; formation of 3,4-dihydroxy-5-methoxybenzoic acid and methanol): catalyzed the demethylation of syringic acid | Methanol release (in words) ([3]; 1,3-dimethoxybenzene): no methanol release | methanol ([3]; 1,3-dimethoxybenzene 12 mM, 25° C., blank 0): 0 mM | Methanol release (in words) ([3]; 3,5-dimethoxybenzoic acid): no methanol release | methanol ([3]; 3,5-dimethoxybenzoic acid 12 mM, 25° C., blank 0): 0 mM | Demethylation of syringic acid (in words) ([3]; Example 9 conditions): catalyzed the demethylation | Demethylation of syringol (in words) ([3]; Example 9 conditions): catalyzed the demethylation | methanol ([3]; Syringic acid 12 mM, pH 6.5, 10 μM CuSO4, 25° C., blank 0): 4.58 mM | methanol ([3]; Syringol 12 mM, pH 6.5, 10 μM CuSO4, 25° C., blank 0.06): 5.73 mM | methanol ([4]; Carboxymodified lignin (corn) 10 g/L, blank 0): 0.35 mM | methanol ([4]; Carboxymodified lignin (wheat)1 10 g/L, blank 0): 0.31 mM | methanol ([4]; Carboxymodified lignin (wheat)2 10 g/L, blank 0): 0.33 mM | methanol ([4]; Fractionated BioLignin 10 g/L, blank 0.28): 0.46 mM | methanol ([4]; Lowest MW from lignin fractionation 10 g/L, blank 0.04): 1.43 mM | methanol ([4]; Purified wheat straw BioLignin 10 g/L, blank 0.05): 0.21 mM | Activity: total release of non-oxidized and C1-oxidized gluco-oligosaccharides from RAC ([5]; reducing agent 3,4-dihydroxy-5-methoxybenzoic acid 2 mM): 22% | Activity: total release of non-oxidized and C1-oxidized gluco-oligosaccharides from RAC ([5]; reducing agent 3,4-dihydroxy-5-methoxycinnamic acid 2 mM): 116% | Activity: total release of non-oxidized and C1-oxidized gluco-oligosaccharides from RAC ([5]; reducing agent 3,4-dihydroxybenzoic acid 2 mM): 139% | Activity: total release of non-oxidized and C1-oxidized gluco-oligosaccharides from RAC ([5]; reducing agent 3-hydroxy-4-methoxycinnamic acid 2 mM): 7558% | Activity: total release of non-oxidized and C1-oxidized gluco-oligosaccharides from RAC ([5]; reducing agent 3-methylcatechol 2 mM): 104% | Activity: total release of non-oxidized and C1-oxidized gluco-oligosaccharides from RAC ([5]; reducing agent 4-allyl-2,4-methoxyphenol 2 mM): 108% | Activity: total release of non-oxidized and C1-oxidized gluco-oligosaccharides from RAC ([5]; reducing agent 4-hydroxy-3-methoxyphenylactone 2 mM): 131% | Activity: total release of non-oxidized and C1-oxidized gluco-oligosaccharides from RAC ([5]; reducing agent caffeic acid 2 mM): 122% | Activity: total release of non-oxidized and C1-oxidized gluco-oligosaccharides from RAC ([5]; reducing agent coniferyl aldehyde 2 mM): 562% | Activity: total release of non-oxidized and C1-oxidized gluco-oligosaccharides from RAC ([5]; reducing agent ferulic acid 2 mM): 231% | Activity: total release of non-oxidized and C1-oxidized gluco-oligosaccharides from RAC ([5]; reducing agent gallic acid 2 mM): 124% | Activity: total release of non-oxidized and C1-oxidized gluco-oligosaccharides from RAC ([5]; reducing agent guaiacol 2 mM): 5143% | Activity: total release of non-oxidized and C1-oxidized gluco-oligosaccharides from RAC ([5]; reducing agent hesperidin 2 mM): 771% | Activity: total release of non-oxidized and C1-oxidized gluco-oligosaccharides from RAC ([5]; reducing agent homovanillic acid 2 mM): 580% | Activity: total release of non-oxidized and C1-oxidized gluco-oligosaccharides from RAC ([5]; reducing agent vanillic acid 2 mM): 495%
